Positions count from the first letter of the chain named.
Key:
Experiment in all cases: SPR, Biacore T200, 25 C; FVII(a) variant captured on anti-Gla Ab 4F6, mAb0842(OA) injected
FVII(a) variant I186A = biological target: T1, FVII(a) variant I186A (human, UniProt P08709 61-466)
T1 construct: hFVII alanine variant in cell culture supernatant
T1 sequence: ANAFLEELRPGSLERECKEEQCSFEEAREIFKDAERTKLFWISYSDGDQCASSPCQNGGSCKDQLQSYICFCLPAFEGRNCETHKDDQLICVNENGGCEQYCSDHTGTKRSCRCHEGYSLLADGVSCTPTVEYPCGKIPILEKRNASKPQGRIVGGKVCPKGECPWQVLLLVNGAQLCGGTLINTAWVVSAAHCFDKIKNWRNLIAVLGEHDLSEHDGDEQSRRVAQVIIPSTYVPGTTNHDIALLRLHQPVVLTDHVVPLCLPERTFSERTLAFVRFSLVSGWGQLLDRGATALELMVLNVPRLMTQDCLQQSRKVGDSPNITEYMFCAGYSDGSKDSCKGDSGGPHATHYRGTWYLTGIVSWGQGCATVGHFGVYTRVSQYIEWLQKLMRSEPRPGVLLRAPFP

FVII(a) variant V252A = biological target: T2, FVII(a) variant V252A (human, UniProt P08709 61-466)
T2 construct: hFVII alanine variant in cell culture supernatant
T2 sequence: T1 sequence with A186I, V252A

FVII(a) variant L120A = biological target: T3, FVII(a) variant L120A (human, UniProt P08709 61-466)
T3 construct: hFVII alanine variant in cell culture supernatant
T3 sequence: T1 sequence with L120A, A186I

FVII(a) variant T130A = biological target: T4, FVII(a) variant T130A (human, UniProt P08709 61-466)
T4 construct: hFVII alanine variant in cell culture supernatant
T4 sequence: T1 sequence with T130A, A186I

FVII(a) variant V131A = biological target: T5, FVII(a) variant V131A (human, UniProt P08709 61-466)
T5 construct: hFVII alanine variant in cell culture supernatant
T5 sequence: T1 sequence with V131A, A186I

Kd (FVII(a) variant I186A): 0.39 nM
Kd (FVII(a) variant V252A): 0.28 nM
Kd (FVII(a) variant L120A): 0.6 nM
Kd (FVII(a) variant T130A): 32.1 nM
Kd (FVII(a) variant V131A): 5.22 nM
B1: mAb0842(OA) (antibody, human IgG4 S228P, kappa)
heavy: QVQLQESGPGLVKPSQTLSLTCTVSGYSISSDSAWSWIRQPPGKGLEWIGYIQYSGSTNYNPSLKSRVTISRDTSKNQFSLKLSSVTAADTAVYYCARSVNYYGNSFAVGYWGQGTLVTVSSASTKGPSVFPLAPCSRSTSESTAALGCLVKDYFPEPVTVSWNSGALTSGVHTFPAVLQSSGLYSLSSVVTVPSSSLGTKTYTCNVDHKPSNTKVDKRVESKYGPPCPPCPAPEFLGGPSVFLFPPKPKDTLMISRTPEVTCVVVDVSQEDPEVQFNWYVDGVEVHNAKTKPREEQFNSTYRVVSVLTVLHQDWLNGKEYKCKVSNKGLPSSIEKTISKAKGQPREPQVYTLPPSQEEMTKNQVSLSCAVKGFYPSDIAVEWESNGQPENNYKTTPPVLDSDGSFFLVSRLTVDKSRWQEGNVFSCSVMHEALHNHYTQKSLSLSLGK
light: EIVLTQSPATLSLSPGERATLSCRASQGISDYLHWYQQKPGEAPRLLIKYTSQPATGIPARFSGSGSGTDFTLTISSLEPEDFAVYYCQNGHSFPLTFGQGTKLEIKRTVAAPSVFIFPPSDEQLKSGTASVVCLLNNFYPREAKVQWKVDNALQSGNSQESVTEQDSKDSTYSLSSTLTLSKADYEKHKVYACEVTHQGLSSPVTKSFNRGEC
chain: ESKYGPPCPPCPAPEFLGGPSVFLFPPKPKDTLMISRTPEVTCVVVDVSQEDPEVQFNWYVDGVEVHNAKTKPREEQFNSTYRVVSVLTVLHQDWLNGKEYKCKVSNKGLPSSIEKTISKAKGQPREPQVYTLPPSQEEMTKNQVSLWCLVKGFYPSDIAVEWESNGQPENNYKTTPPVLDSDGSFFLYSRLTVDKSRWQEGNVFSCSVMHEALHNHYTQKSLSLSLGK
notes: also called monovalent humanized 11F2 antibody; one-armed anti-FVII(a) antibody
